Test [1] deals with A244-rgp120 grown in GnTI- cells (HIV-1 isolate A244). Put plainly: ELISA, mAb titrated on gp120, absorbance 492 nm; curve 495 (A244 gp120 GNTI-). For orientation: ELISA stands for enzyme-linked immunosorbent assay.
Another test has as its target ZM109 V1/V2 wt (293). Put plainly: ELISA; table row ZM109 V1/V2 wt, column 293.
Test [2] has as its target 108060 I169K/E172V/T161M/N156I V1/V2 scaffold, gD-tagged, produced in normal 293 HEK cells (herpes simplex virus 1; HIV-1 isolate 108060). Briefly: ELISA; table row 108060 I169K/E172V/T161M/N156I, column 293.
The target in test [3] is A244 V1/V2 scaffold, wildtype (unmutated), Strep-tag/6x Histidine-tag, expressed in GnTI- cells (HIV-1 isolate A244). Put plainly: SPR (Biacore 3000), PG9 captured by anti-human Fc at about 100 RU, scaffold flowed, 1:1 Langmuir fit.
Test [4] concerns the target UCSC1207 V1/V2/V3 scaffold (glycosylation site moved from N334 to N332) grown in GnTI- cells (HIV-1 isolate A244 (clade CRF01-AE)). Briefly: ELISA, mAb titrated on scaffold, absorbance 492 nm; curve 512 (1207 GNTI-).
Test [5] concerns the target 108060 V1/V2 scaffold, wildtype, gD-tagged, produced in normal 293 HEK cells (herpes simplex virus 1; HIV-1 isolate 108060). Briefly: ELISA; table row 108060 V1/V2 wt, column 293.
In test [6] the target is 108060 V1/V2 scaffold, wildtype, gD-tagged, produced in GnTI- 293 HEK cells (herpes simplex virus 1; HIV-1 isolate 108060). Put plainly: ELISA; table row 108060 V1/V2 wt, GnTI-.
In test [7] the target is 108060 I169K/E172V V1/V2 scaffold, gD-tagged, produced in GnTI- 293 HEK cells (herpes simplex virus 1; HIV-1 isolate 108060). Briefly: ELISA; table row 108060 V1/V2 I169K/E172V, GnTI-.
In test [8] the target is A244 V1/V2 scaffold, wildtype, gD-tagged, produced in normal 293 HEK cells (herpes simplex virus 1; HIV-1 isolate A244) (UniProt Q69091). Put plainly: capture ELISA on 34.1 anti-gD; scaffold made in 293 cells.
Test [9] addresses 108060 I169K/E172V/T161M/N156I/S164P/L165G V1/V2 scaffold, gD-tagged, produced in GnTI- 293 HEK cells (herpes simplex virus 1; HIV-1 isolate 108060). Put plainly: capture ELISA on 34.1 anti-gD; purified scaffold made in GnTI- cells.
The target of test [10] is MN V1/V2 scaffold, engineered, gD-tagged, produced in GnTI- 293 HEK cells (herpes simplex virus 1; HIV-1 isolate MN). Described as above.
The target in test [11] is JRFL-E168K V1/V2 scaffold, engineered, gD-tagged, produced in GnTI- 293 HEK cells (herpes simplex virus 1; HIV-1 isolate JRFL). The test is described as above.
The target of test [12] is 108060 I169K/E172V/T161M/N156I/S164G/D167G V1/V2 scaffold, gD-tagged, produced in GnTI- 293 HEK cells (herpes simplex virus 1; HIV-1 isolate 108060). The description is as above.
Test [13] addresses A244 V1/V2 scaffold, wildtype, gD-tagged, produced in GnTI- 293 HEK cells (herpes simplex virus 1; HIV-1 isolate A244) (UniProt Q69091). Briefly: capture ELISA on 34.1 anti-gD; scaffold in medium of GnTI- cells.
For test [14], the target named is 1209 V1/V2/V3/C3 scaffold grown in GnTI- cells. Put plainly: ELISA, mAb titrated on scaffold, absorbance 492 nm; curve 505 (1209 GNTI-).

As to PG9 monoclonal antibody, the EC50 in test [1] is 0.02 µg/mL; in the test with ZM109 V1/V2 wt (293) it was 0.517 µg/mL; in [2] it was 0.599 µg/mL; in test [4] it was 0.02 µg/mL; in test [5], above 10 µg/mL; in [6], above 10 µg/mL. Moreover, the EC50 in test [7] came to 0.113 µg/mL; in test [8], 0.893 µg/mL; in test [9], 0.00834 µg/mL; in test [10], 0.0079 µg/mL; in [11] it was 0.013 µg/mL; in [12], 0.0068 µg/mL. The EC50 in [13] was determined as 0.00074 µg/mL; in [14] it was 0.14 µg/mL. In test [3], this substance gave a Kd of 15 nM.

What is called EC50 is the concentration needed to bring the measured effect to its halfway point. The term Kd denotes the concentration at which binding is half-saturated. A high value points to a looser complex.

Source of the values: patent publication US20190091326A1.
